Test results taken from patent publication US20240424129A1, “RECOMBINANT FUSION ANTIBODY, AND ANTIBODY-DRUG CONJUGATE AND USE THEREOF” (SUN YAT-SEN UNIVERSITY, priority 2021, published 2024).

B1: VHH0: non-fused anti-HER2 nanobody VHH-S84C-His6, SEQ ID NO: 32 (protein)
VHH: EVQLVESGGGLVQAGGSLRLSCAASGITFSINTMGWYRQAPGKQRELVALISSIGDTYYADSVKGRFTISRDNAKNTVYLQMNCLKPEDTAVYYCKRFRTAAQGTDYWGQGTQVTVSSHHHHHH
modifications: His6 tag
B2: Fused VHH20-MMAF (conjugate)
VHH: EVQLVESGGGLVQAGGSLRLSCAASGITFSINTMGWYRQAPGKQRELVALISSIGDTYYADSVKGRFTISRDNAKNTVYLQMNCLKPEDTAVYYCKRFRTAAQGTDYWGQGTQVTVSSHHHHHHLPETGGGRRRSFHDDSDEDLLHI
B3: Fused VHH3-MMAF (conjugate)
VHH: EVQLVESGGGLVQAGGSLRLSCAASGITFSINTMGWYRQAPGKQRELVALISSIGDTYYADSVKGRFTISRDNAKNTVYLQMNCLKPEDTAVYYCKRFRTAAQGTDYWGQGTQVTVSSHHHHHHLPETGGGASVSLLDDEL
B4: Fused VHH16-MMAF (conjugate)
VHH: EVQLVESGGGLVQAGGSLRLSCAASGITFSINTMGWYRQAPGKQRELVALISSIGDTYYADSVKGRFTISRDNAKNTVYLQMNCLKPEDTAVYYCKRFRTAAQGTDYWGQGTQVTVSSHHHHHHLPETGGGPAAYRGVGDD
B5: Fused VHH15-MMAF (conjugate)
VHH: EVQLVESGGGLVQAGGSLRLSCAASGITFSINTMGWYRQAPGKQRELVALISSIGDTYYADSVKGRFTISRDNAKNTVYLQMNCLKPEDTAVYYCKRFRTAAQGTDYWGQGTQVTVSSHHHHHHLPETGGGSYKYSKVNKE
B6: Fused VHH5-MMAF (conjugate)
VHH: EVQLVESGGGLVQAGGSLRLSCAASGITFSINTMGWYRQAPGKQRELVALISSIGDTYYADSVKGRFTISRDNAKNTVYLQMNCLKPEDTAVYYCKRFRTAAQGTDYWGQGTQVTVSSHHHHHHLPETGGGVQNPSADRNLLDL
B7: Fused VHH19-MMAF (conjugate)
VHH: EVQLVESGGGLVQAGGSLRLSCAASGITFSINTMGWYRQAPGKQRELVALISSIGDTYYADSVKGRFTISRDNAKNTVYLQMNCLKPEDTAVYYCKRFRTAAQGTDYWGQGTQVTVSSHHHHHHLPETGGGRRRRKSDEDLLHI
B8: Fused VHH14-MMAF (conjugate)
VHH: EVQLVESGGGLVQAGGSLRLSCAASGITFSINTMGWYRQAPGKQRELVALISSIGDTYYADSVKGRFTISRDNAKNTVYLQMNCLKPEDTAVYYCKRFRTAAQGTDYWGQGTQVTVSSHHHHHHLPETGGGEESEERDDHLLPM
B9: Fused VHH13-MMAF (conjugate)
VHH: EVQLVESGGGLVQAGGSLRLSCAASGITFSINTMGWYRQAPGKQRELVALISSIGDTYYADSVKGRFTISRDNAKNTVYLQMNCLKPEDTAVYYCKRFRTAAQGTDYWGQGTQVTVSSHHHHHHLPETGGGSFHDDSDEDLLHI
B10: Fused VHH1-MMAF (conjugate)
VHH: EVQLVESGGGLVQAGGSLRLSCAASGITFSINTMGWYRQAPGKQRELVALISSIGDTYYADSVKGRFTISRDNAKNTVYLQMNCLKPEDTAVYYCKRFRTAAQGTDYWGQGTQVTVSSHHHHHHLPETGGGASVSLLDDELMSL
B11: Fused VHH17-MMAF (conjugate)
VHH: EVQLVESGGGLVQAGGSLRLSCAASGITFSINTMGWYRQAPGKQRELVALISSIGDTYYADSVKGRFTISRDNAKNTVYLQMNCLKPEDTAVYYCKRFRTAAQGTDYWGQGTQVTVSSHHHHHHLPETGGGRRRSDEDLLHI
B12: Fused VHH24-MMAF (conjugate)
VHH: EVQLVESGGGLVQAGGSLRLSCAASGITFSINTMGWYRQAPGKQRELVALISSIGDTYYADSVKGRFTISRDNAKNTVYLQMNCLKPEDTAVYYCKRFRTAAQGTDYWGQGTQVTVSSHHHHHHHLPETGGGRRRRKRKRSHAGYQTI
B13: Fused VHH18-MMAF (conjugate)
VHH: EVQLVESGGGLVQAGGSLRLSCAASGITFSINTMGWYRQAPGKQRELVALISSIGDTYYADSVKGRFTISRDNAKNTVYLQMNCLKPEDTAVYYCKRFRTAAQGTDYWGQGTQVTVSSHHHHHHLPETGGGRRLRSDEDLLHI
B14: Fused VHH21-MMAF (conjugate)
VHH: EVQLVESGGGLVQAGGSLRLSCAASGITFSINTMGWYRQAPGKQRELVALISSIGDTYYADSVKGRFTISRDNAKNTVYLQMNCLKPEDTAVYYCKRFRTAAQGTDYWGQGTQVTVSSHHHHHHLPETGGGRRLRKSFHDDSDEDLLHI
B15: Fused VHH22-MMAF (conjugate)
VHH: EVQLVESGGGLVQAGGSLRLSCAASGITFSINTMGWYRQAPGKQRELVALISSIGDTYYADSVKGRFTISRDNAKNTVYLQMNCLKPEDTAVYYCKRFRTAAQGTDYWGQGTQVTVSSHHHHHHLPETGGGRRRRKSFHDDSDEDLLHI
B16: Fused VHH2-MMAF (conjugate)
VHH: EVQLVESGGGLVQAGGSLRLSCAASGITFSINTMGWYRQAPGKQRELVALISSIGDTYYADSVKGRFTISRDNAKNTVYLQMNCLKPEDTAVYYCKRFRTAAQGTDYWGQGTQVTVSSHHHHHHLPETGGGRRRASVSLLDDELMSL
B17: Fused VHH4-MMAF (conjugate)
VHH: EVQLVESGGGLVQAGGSLRLSCAASGITFSINTMGWYRQAPGKQRELVALISSIGDTYYADSVKGRFTISRDNAKNTVYLQMNCLKPEDTAVYYCKRFRTAAQGTDYWGQGTQVTVSSHHHHHHHLPETGGGASSGLDDLDLLGK
B18: Fused VHH6-MMAF (conjugate)
VHH: EVQLVESGGGLVQAGGSLRLSCAASGITFSINTMGWYRQAPGKQRELVALISSIGDTYYADSVKGRFTISRDNAKNTVYLQMNCLKPEDTAVYYCKRFRTAAQGTDYWGQGTQVTVSSHHHHHHHLPETGGGNALSWLDEELLCL
B19: Fused VHH25-MMAF (conjugate)
VHH: EVQLVESGGGLVQAGGSLRLSCAASGITFSINTMGWYRQAPGKQRELVALISSIGDTYYADSVKGRFTISRDNAKNTVYLQMNCLKPEDTAVYYCKRFRTAAQGTDYWGQGTQVTVSSHHHHHHHLPETGGGKHHHAGYEQF
B20: Fused VHH23-MMAF (conjugate)
VHH: EVQLVESGGGLVQAGGSLRLSCAASGITFSINTMGWYRQAPGKQRELVALISSIGDTYYADSVKGRFTISRDNAKNTVYLQMNCLKPEDTAVYYCKRFRTAAQGTDYWGQGTQVTVSSHHHHHHHLPETGGGRKRSHAGYQTI
B21: Fused VHH26-MMAF (conjugate)
VHH: EVQLVESGGGLVQAGGSLRLSCAASGITFSINTMGWYRQAPGKQRELVALISSIGDTYYADSVKGRFTISRDNAKNTVYLQMNCLKPEDTAVYYCKRFRTAAQGTDYWGQGTQVTVSSHHHHHHHLPETGGGRRLRKHHHAGYEQF
B22: Fused VHH12-MMAF (conjugate)
VHH: EVQLVESGGGLVQAGGSLRLSCAASGITFSINTMGWYRQAPGKQRELVALISSIGDTYYADSVKGRFTISRDNAKNTVYLQMNCLKPEDTAVYYCKRFRTAAQGTDYWGQGTQVTVSSHHHHHHGGGGSGGGGSGGGGSSDEDLLHI
B23: Fused VHH10-MMAF (conjugate)
VHH: EVQLVESGGGLVQAGGSLRLSCAASGITFSINTMGWYRQAPGKQRELVALISSIGDTYYADSVKGRFTISRDNAKNTVYLQMNCLKPEDTAVYYCKRFRTAAQGTDYWGQGTQVTVSSHHHHHHGGGGGSDEDLLHI
B24: Fused VHH11-MMAF (conjugate)
VHH: EVQLVESGGGLVQAGGSLRLSCAASGITFSINTMGWYRQAPGKQRELVALISSIGDTYYADSVKGRFTISRDNAKNTVYLQMNCLKPEDTAVYYCKRFRTAAQGTDYWGQGTQVTVSSHHHHHHGGGGSSDEDLLHI
B25: Fused VHH9-MMAF (conjugate)
VHH: EVQLVESGGGLVQAGGSLRLSCAASGITFSINTMGWYRQAPGKQRELVALISSIGDTYYADSVKGRFTISRDNAKNTVYLQMNCLKPEDTAVYYCKRFRTAAQGTDYWGQGTQVTVSSHHHHHHGGGSDEDLLHI

The molecules below were run on SKBR3 cells (assay: In-vitro cytotoxicity, CCK8 cell viability). Details: SKBR3, 48 h, CCK8.
Assay type: cell-based, human
Method: (§1) In this example, human breast cancer cell line SKBR3 with high expression of HER2 and human ovarian cancer cell line SKOV3 with high expression of HER2 were chosen to evaluate the ability of the recombinant-fusion-antibody-drug conjugates to inhibit the growth of cancer cells. The recombinant-fusion-antibody-drug conjugates of different concentrations were added to a 96-well plate seeded with SKBR3 or SKOV3 cells. After treatment for 48 h, the viability of cells was calculated using a CCK8 kit.
Cell viability was measured using different concentrations of MMAF, VHH0-MMAF, or different recombinant-fusion-nanobody-drug conjugates (fused VHH1-MMAF to fused VHH26-MMAF). The half-maximal inhibitory concentration IC50 was calculated (FIGS. 14A-14C, and Table 7). FIGS. 14A, 14B and 14C respectively show the viability of SKBR3 cells treated with the recombinant-fusion-nanobody-drug conjugates, including fused VHH1-MMAF to fused VHH6-MMAF, fused VHH7-MMAF to fused VHH22-MMAF, and fused VHH23-MMAF to fused VHH26-MMAF. […] Data are expressed as the mean (n=3).
SKBR3 and SKOV3 cells were chosen to evaluate the ability of the recombinant-fusion-full-length-antibody-drug conjugates to inhibit the growth of cancer cells. […] The half-maximal inhibitory concentration IC50 was calculated.
For B1, the “viability of the treated cells” value was “approximately 100%”.

Same assay, conditions: SKBR3, 48 h, CCK8, mean n=3; Table 7
With B2 the IC50 was 38 pM. B3 was tested, and the IC50 was 109 pM. Molecule B4 has an IC50 of 27 pM. B5 was tested, and the IC50 was 51 pM. B6 showed an IC50 of 791 pM. In the case of B7, the IC50 is reported as 564 pM. B8 showed an IC50 of 69 pM. B9 showed an IC50 of 79.8 pM. B10 showed an IC50 of 1340 pM. B11 gave an IC50 of 165 pM. For B12, the IC50 was 128 pM. Work on B13 yielded an IC50 of 394 pM. B14 gave an IC50 of 16 pM. In the case of B15, the IC50 is reported as 14 pM. With B16 the IC50 was 126 pM. Work on B17 yielded an IC50 of 885 pM. B18 gave an IC50 of 791 pM. B19 showed an IC50 of 466 pM. Molecule B20 has an IC50 of 98 pM. With B21 the IC50 was 95 pM. With B22 the IC50 was 140 pM. Work on B23 yielded an IC50 of 232 pM. Work on B24 yielded an IC50 of 160 pM. B25 gave an IC50 of 294 pM.

These molecules were tested on MDA-MB-231 cells (assay: In-vitro cytotoxicity, HER2-negative negative control). Details: MDA-MB-231, FIG. 15.
Assay type: cell-based, human
Method: as §1
In addition, in this example, the HER2-negative MDA-MB-231 cells were chosen as a negative control to compare the ability of fused VHH7-MMAF, fused VHH8-MMAF, VHH0-MMAF, VHH0, and MMAF to inhibit the growth of cancer cells.
For B1, the “cytotoxicity in HER2-negative cells” value was “none of the substances are cytotoxic”.
